# Square brackets hold non-standard residues; d marks the D form. Ends that are not written are not given here. Tyr(3-NO2) = N[C@@H](Cc1ccc(O)c([N+](=O)[O-])c1)C(=O)O; 2Abz = Nc1ccccc1C(=O)O
# How the values were obtained:
# Format in all cases: biochemical
# uPA = uPA (Homo sapiens, UniProt P00749); assay: FRET peptide cleavage efficiency with uPA
# matriptase = target: T1, matriptase (Homo sapiens, UniProt Q9Y5Y6); assay: FRET peptide cleavage efficiency with matriptase
# T1 construct: purchased R&D Systems 3946-SEB
# T1 sequence (Q9Y5Y6 615-855 limits assumed): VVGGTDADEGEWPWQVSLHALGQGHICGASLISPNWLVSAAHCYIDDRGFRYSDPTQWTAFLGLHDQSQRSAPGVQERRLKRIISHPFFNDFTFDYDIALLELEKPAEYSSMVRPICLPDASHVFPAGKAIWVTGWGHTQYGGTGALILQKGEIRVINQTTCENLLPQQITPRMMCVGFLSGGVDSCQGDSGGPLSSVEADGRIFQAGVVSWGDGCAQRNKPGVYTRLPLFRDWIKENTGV
# MMP-7 = target: T2, MMP-7 (Homo sapiens, UniProt P09237); assay: FRET peptide cleavage efficiency with MMP-7 (standard pH 7.5; also pH 6.5)
# T2 construct: purchased SIGMA CC1059
# T2 sequence (P09237 95-267): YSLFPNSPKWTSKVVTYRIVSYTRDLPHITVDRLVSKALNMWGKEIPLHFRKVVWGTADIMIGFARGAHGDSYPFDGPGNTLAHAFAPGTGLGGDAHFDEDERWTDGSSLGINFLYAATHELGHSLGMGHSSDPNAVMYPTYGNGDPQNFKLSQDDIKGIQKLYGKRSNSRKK
# MMP-2 = target: T3, MMP-2 (Homo sapiens, UniProt P08253); assay: FRET peptide cleavage efficiency with MMP-2
# T3 construct: purchased SIGMA PF023
# T3 sequence (P08253 110-660): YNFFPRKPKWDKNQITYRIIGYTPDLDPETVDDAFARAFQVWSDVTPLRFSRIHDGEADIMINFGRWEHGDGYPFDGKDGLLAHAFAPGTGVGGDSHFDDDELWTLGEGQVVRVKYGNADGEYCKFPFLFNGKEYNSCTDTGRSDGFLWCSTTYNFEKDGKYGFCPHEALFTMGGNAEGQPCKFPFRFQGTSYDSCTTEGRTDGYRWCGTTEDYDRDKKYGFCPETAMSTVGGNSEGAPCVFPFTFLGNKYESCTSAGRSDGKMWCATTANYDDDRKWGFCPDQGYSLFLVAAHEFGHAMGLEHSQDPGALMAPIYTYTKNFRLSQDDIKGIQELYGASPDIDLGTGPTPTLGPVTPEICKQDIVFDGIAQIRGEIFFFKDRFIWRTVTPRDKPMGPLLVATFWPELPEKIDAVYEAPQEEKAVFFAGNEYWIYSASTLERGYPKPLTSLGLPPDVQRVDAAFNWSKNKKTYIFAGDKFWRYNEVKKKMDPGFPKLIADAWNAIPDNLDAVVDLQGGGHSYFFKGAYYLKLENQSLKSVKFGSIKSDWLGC
# MMP-9 = target: T4, MMP-9 (Homo sapiens, UniProt P14780); assay: FRET peptide cleavage efficiency with MMP-9 (standard pH 7.5; also pH 6.5)
# T4 construct: purchased SIGMA PF024
# [1] = 200 uM linker, 1 ug/ml protease, 37° C., buffer A pH 8.5
# [2] = t = 60 min, 200 uM linker, 1 ug/ml protease, 37° C., buffer A pH 8.5
# [3] = t = 120 min, 200 uM linker, 1 ug/ml protease, 37° C., buffer A pH 8.5
# [4] = t = 15 min, 200 uM linker, 1 ug/ml protease, 37° C., buffer B pH 9.0
# [5] = t = 60 min, 200 uM linker, 1 ug/ml protease, 37° C., buffer B pH 9.0
# [6] = 200 uM linker, 1 ug/ml protease, 37° C., buffer B pH 9.0
# [7] = t = 15 min, 200 uM linker, 1 ug/ml protease, 37° C., buffer C pH 7.5
# [8] = t = 60 min, 200 uM linker, 1 ug/ml protease, 37° C., buffer C pH 7.5
# [9] = t = 120 min, 200 uM linker, 1 ug/ml protease, 37° C., buffer C pH 7.5
# [10] = t = 60 min, standard conditions (Table 8)
# [11] = t = 120 min, standard conditions (Table 8)
# [12] = t = 15 min, standard conditions (Table 8)
# T4 sequence (P14780 94-707): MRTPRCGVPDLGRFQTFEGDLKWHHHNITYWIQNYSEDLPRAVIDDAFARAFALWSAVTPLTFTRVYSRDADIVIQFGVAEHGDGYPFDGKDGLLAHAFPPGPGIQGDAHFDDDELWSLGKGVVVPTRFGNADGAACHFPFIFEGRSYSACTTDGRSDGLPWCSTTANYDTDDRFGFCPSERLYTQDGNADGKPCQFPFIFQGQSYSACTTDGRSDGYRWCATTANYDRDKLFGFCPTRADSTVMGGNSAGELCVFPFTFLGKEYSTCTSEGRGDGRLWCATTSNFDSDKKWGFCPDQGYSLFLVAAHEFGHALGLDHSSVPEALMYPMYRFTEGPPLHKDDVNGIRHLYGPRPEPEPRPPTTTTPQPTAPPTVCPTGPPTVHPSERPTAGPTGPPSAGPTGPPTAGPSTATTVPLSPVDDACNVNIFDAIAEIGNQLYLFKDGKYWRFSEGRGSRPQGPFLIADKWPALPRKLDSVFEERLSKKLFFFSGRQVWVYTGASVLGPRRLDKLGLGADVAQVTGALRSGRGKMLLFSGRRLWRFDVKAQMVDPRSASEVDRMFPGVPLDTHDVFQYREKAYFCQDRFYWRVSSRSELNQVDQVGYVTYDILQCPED
Sequence,% cleavage uPA t = 15 min (uPA; [1]),% cleavage uPA t = 60 min (uPA; [2]),% cleavage uPA t = 120 min (uPA; [3]),% cleavage Matriptase t = 15 min (matriptase; [4]),% cleavage Matriptase t = 60 min (matriptase; [5]),% cleavage Matriptase t = 120 min (matriptase; [6]),% cleavage MMP-7 t = 15 min (MMP-7; t = 15 min (Table 9)),% cleavage MMP-7 t = 60 min (MMP-7; t = 60 min (Table 9)),% cleavage MMP-7 t = 120 min (MMP-7; t = 120 min (Table 9)),% cleavage MMP-2 t = 15 min (MMP-2; t = 15 min (Table 9)),% cleavage MMP-2 t = 15 min (MMP-2; [7]),% cleavage MMP-2 t = 60 min (MMP-2; t = 60 min (Table 9)),% cleavage MMP-2 t = 60 min (MMP-2; [8]),% cleavage MMP-2 t = 120 min (MMP-2; t = 120 min (Table 9)),% cleavage MMP-2 t = 120 min (MMP-2; [9]),% cleavage MMP-9 t = 15 min (MMP-9; t = 15 min (Table 9)),% cleavage MMP-9 t = 60 min (MMP-9; t = 60 min (Table 9)),% cleavage MMP-9 t = 120 min (MMP-9; t = 120 min (Table 9)),other results
RGRRPLGYFGKL ([2Abz]RGRRPLGYFGKL[Tyr(3-NO2)]-NH2) [LNK057],0%,0%,0%,22%,78%,100%,0%,0%,0%,71%,71%,100%,100%,100%,100%,20%,100%,100%,–
RGRRSGRAANLVRPLGYFGKL ([2Abz]RGRRSGRAANLVRPLGYFGKL[Tyr(3-NO2)]-NH2) [LNK059],67%,100%,100%,76%,100%,100%,0%,0%,0%,77%,77%,100%,100%,100%,100%,39%,100%,100%,–
RGRRVANLVG ([2Abz]RGRRVANLVG[Tyr(3-NO2)]-NH2) [LNK033],–,–,–,–,–,–,30%,86%,98%,87%,–,100%,–,100%,–,81%,100%,100%,% vcleavage uPA t = 15 min (uPA; standard conditions (Table 8)): 1%; % cleavage uPA t = 60 min (uPA; [10]): 2%; % cleavage uPA t = 120 min (uPA; [11]): 3%; % cleavage Matriptase t = 15 min (matriptase; [12]): 100%; % cleavage Matriptase t = 60 min (matriptase; [10]): 100%; % cleavage Matriptase t = 120 min (matriptase; standard conditions (Table 8)): 100%; % cleavage MMP-7 t = 15 min (MMP-7; [12]): 30%; % cleavage MMP-7 t = 60 min (MMP-7; [10]): 86%; % cleavage MMP-7 t = 120 min (MMP-7; [11]): 98%; % cleavage MMP-2 t = 60 min (MMP-2; [10]): 100%; % cleavage MMP-2 t = 120 min (MMP-2; [11]): 100%; % cleavage MMP-9 t = 15 min (MMP-9; [12]): 81%; % cleavage MMP-9 t = 60 min (MMP-9; [10]): 100%; % cleavage MMP-9 t = 120 min (MMP-9; [11]): 100%

# Continued, in another order:
% cleavage uPA t = 15 min (uPA; [1]),% cleavage uPA t = 60 min (uPA; [2]),% cleavage uPA t = 120 min (uPA; [3]),% cleavage Matriptase t = 15 min (matriptase; [4]),% cleavage Matriptase t = 60 min (matriptase; [5]),% cleavage Matriptase t = 120 min (matriptase; [6]),% cleavage MMP-7 t = 15 min (MMP-7; t = 15 min (Table 9)),% cleavage MMP-7 t = 60 min (MMP-7; t = 60 min (Table 9)),% cleavage MMP-7 t = 120 min (MMP-7; t = 120 min (Table 9)),% cleavage MMP-2 t = 15 min (MMP-2; t = 15 min (Table 9)),% cleavage MMP-2 t = 15 min (MMP-2; [7]),% cleavage MMP-2 t = 60 min (MMP-2; t = 60 min (Table 9)),% cleavage MMP-2 t = 60 min (MMP-2; [8]),% cleavage MMP-2 t = 120 min (MMP-2; t = 120 min (Table 9)),% cleavage MMP-2 t = 120 min (MMP-2; [9]),% cleavage MMP-9 t = 15 min (MMP-9; t = 15 min (Table 9)),% cleavage MMP-9 t = 60 min (MMP-9; t = 60 min (Table 9)),% cleavage MMP-9 t = 120 min (MMP-9; t = 120 min (Table 9)),Sequence,other results
1%,3%,6%,78%,100%,100%,1%,3%,6%,54%,54%,100%,100%,100%,100%,52%,100%,100%,RGRRVANPLGLAGSG ([2Abz]RGRRVANPLGLAGSG[Tyr(3-NO2)]-NH2) [LNK050],–
1%,5%,10%,88%,100%,100%,0%,0%,0%,68%,68%,100%,100%,100%,100%,31%,97%,100%,RGRRVANPLGYFGKL ([2Abz]RGRRVANPLGYFGKL[Tyr(3-NO2)]-NH2) [LNK058],–
2%,4%,8%,67%,100%,100%,0%,0%,0%,85%,85%,100%,100%,100%,100%,35%,81%,100%,RGRRVANYFGKL ([2Abz]RGRRVANYFGKL[Tyr(3-NO2)]-NH2) [LNK055],–
–,–,–,–,–,–,20%,72%,95%,81%,–,100%,–,100%,–,53%,100%,100%,RQRKVANLVG ([2Abz]RQRKVANLVG[Tyr(3-NO2)]-NH2) [LNK032],% vcleavage uPA t = 15 min (uPA; standard conditions (Table 8)): 0%; % cleavage uPA t = 60 min (uPA; [10]): 0%; % cleavage uPA t = 120 min (uPA; [11]): 0%; % cleavage Matriptase t = 15 min (matriptase; [12]): 81%; % cleavage Matriptase t = 60 min (matriptase; [10]): 100%; % cleavage Matriptase t = 120 min (matriptase; standard conditions (Table 8)): 100%; % cleavage MMP-7 t = 15 min (MMP-7; [12]): 20%; % cleavage MMP-7 t = 60 min (MMP-7; [10]): 72%; % cleavage MMP-7 t = 120 min (MMP-7; [11]): 95%; % cleavage MMP-2 t = 60 min (MMP-2; [10]): 100%; % cleavage MMP-2 t = 120 min (MMP-2; [11]): 100%; % cleavage MMP-9 t = 15 min (MMP-9; [12]): 53%; % cleavage MMP-9 t = 60 min (MMP-9; [10]): 100%; % cleavage MMP-9 t = 120 min (MMP-9; [11]): 100%
0%,1%,2%,98%,94%,91%,15%,49%,78%,67%,64%,100%,99%,100%,99%,76%,99%,100%,RQRRSPLGLAG ([2Abz]RQRRSPLGLAG[Tyr(3-NO2)]-NH2) [LNK010],"% cleavage uPA t = 60 min (uPA; pH 6.5, t = 60 min (Table 7)): 0%; % cleavage uPA t = 120 min (uPA; pH 6.5, t = 120 min (Table 7)): 0%; % cleavage uPA t = 60 min (uPA; pH 7.5, t = 60 min (Table 7)): 0%; % cleavage uPA t = 120 min (uPA; pH 7.5, t = 120 min (Table 7)): 0%; % cleavage Matriptase t = 15 min (matriptase; pH 6.5, t = 15 min (Table 7)): 90%; % cleavage Matriptase t = 60 min (matriptase; pH 6.5, t = 60 min (Table 7)): 100%; % cleavage Matriptase t = 15 min (matriptase; pH 7.5, t = 15 min (Table 7)): 100%; % cleavage Matriptase t = 60 min (matriptase; pH 7.5, t = 60 min (Table 7)): 100%; % cleavage MMP-2 t = 15 min (MMP-2; pH 6.5, t = 15 min (Table 7)): 63%; % cleavage MMP-2 t = 60 min (MMP-2; pH 6.5, t = 60 min (Table 7)): 100%; % cleavage MMP-2 t = 15 min (MMP-2; pH 7.5, t = 15 min (Table 7)): 66%; % cleavage MMP-2 t = 60 min (MMP-2; pH 7.5, t = 60 min (Table 7)): 100%"

# Reference: US20240400614A1, “CLEAVABLE PEPTIDES AND METHODS OF USE THEREOF” (Bright Peak Therapeutics AG, priority 2023, published 2024)
